Laboratory results published in publication doi:10.1101/2024.03.04.583305.

Experiments:
Assay in all cases: EMSA
monoMYC (4) (synthetic) = monoMYC (4) (synthetic) (UniProt P01106)
DuoMYC (7) (synthetic) = DuoMYC (7) (synthetic) (UniProt P01106)
DuoMYC (5) (synthetic) = DuoMYC (5) (synthetic) (UniProt P01106)
Chain of DuoMYC (5) (synthetic) (P01106 365-423): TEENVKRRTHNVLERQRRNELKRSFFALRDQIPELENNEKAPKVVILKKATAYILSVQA

Chain of monoMYC (4) (synthetic) (P01106 365-423): as above
Chain of DuoMYC (7) (synthetic) (P01106 whole entry): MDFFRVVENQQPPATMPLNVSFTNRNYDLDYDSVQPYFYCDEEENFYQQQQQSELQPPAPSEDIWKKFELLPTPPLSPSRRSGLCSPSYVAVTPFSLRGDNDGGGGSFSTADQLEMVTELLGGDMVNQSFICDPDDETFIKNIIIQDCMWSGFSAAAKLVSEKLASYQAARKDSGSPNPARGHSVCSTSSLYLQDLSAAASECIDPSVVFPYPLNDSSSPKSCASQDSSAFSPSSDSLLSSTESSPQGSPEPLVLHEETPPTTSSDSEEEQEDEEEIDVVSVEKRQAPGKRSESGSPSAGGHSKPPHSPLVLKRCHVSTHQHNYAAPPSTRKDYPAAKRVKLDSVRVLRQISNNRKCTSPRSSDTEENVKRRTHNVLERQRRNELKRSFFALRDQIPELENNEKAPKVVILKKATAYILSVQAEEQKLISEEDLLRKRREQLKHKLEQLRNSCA

ACCCCACCACGTGGTGCCT (double strand) [E-Box DNA]
Kd (monoMYC (4) (synthetic)): 969 nM | Kd (DuoMYC (7) (synthetic)): 174 nM | Kd (DuoMYC (5) (synthetic)): 118 nM
